Results: article PMC12316734, “Lipase Activation by Poly(Methyl Methacrylate) in Dispersed Solution: Mechanistic Insights by Fluorescence Spectroscopy” (Applied Biochemistry and Biotechnology, 2025)

Biological target: the molecule itself
Test: fluorescence correlation spectroscopy; 15 nM Atto 488-labelled TLL plus non-labelled TLL to 500 nM, no PMMA, broad-range buffer (succinic acid/NaH2PO4/glycine), pH 7 and pH 5; mean diffusion constant compared with the value predicted for the monomer (Hullrad)

B1: Thermomyces lanuginosus lipase (enzyme, UniProt O59952 23-291, looked up)
chain: EVSQDLFNQFNLFAQYSAAAYCGKNNDAPAGTNITCTGNACPEVEKADATFLYSFEDSGVGDVTGFLALDNTNKLIVLSFRGSRSIENWIGNLNFDLKEINDICSGCRGHDGFTSSWRSVADTLRQKVEDAVREHPDYRVVFTGHSLGGALATVAGADLRGNGYDIDVFSYGAPRVGNRAFAEFLTVQTGGTLYRITHTNDIVPRLPPREFGYSHSSPEYWIKSGTLVPVTRNDIVKIEGIDATGGNNQPNIPDIPAHLWYFGLIGTCL
modifications: Atto 488 coupled unspecifically to amines via NHS-ester (15 nM labelled protein, non-labelled enzyme added to 500 nM)
notes: Thermomyces lanuginosus lipase (TLL), commercial enzyme preparation; The PDB entries were used only for computational surface analysis; also called TLL; Atto 488-TLL; source: gift from ASA Spezialenzyme GmbH (Wolfenbüttel, Germany), desalted (HiTrap Desalting) before use
Q: Which “stoichiometry N” value does the source give for B1 here?
A: 2
